In the test the target is FLAG epitope tagged adenylyl cyclase 2 (rat).

One substance from patent US6034071 can be followed below.

In the case of protein kinase C (enzyme), the 32P incorporated into purified F-AC2 after PMA treatment of the cells stood at 3 fold.
